The test has as its target T1, GST-GSNOR (GST-tagged full-length GSNOR) (Arabidopsis thaliana, UniProt Q96533 1-379).
T1 construct: Arabidopsis thaliana S-nitrosoglutathione reductase (GSNOR, At5g43940), full-length cDNA; source: E. coli BL21, purified
In words: far-Western, overlay or dot blot; 1 μg of each purified GST fusion protein separated by 10% SDS-PAGE and transferred to a PVDF membrane; blot probed with 1 μg CaM4-His in 10 ml TBST with 0.1 mM CaCl2 (or 0.1 mM EGTA, with which the binding became weaker); detected with anti-His antibody. The note with it: both partners purified.

T1 sequence (Q96533 whole entry): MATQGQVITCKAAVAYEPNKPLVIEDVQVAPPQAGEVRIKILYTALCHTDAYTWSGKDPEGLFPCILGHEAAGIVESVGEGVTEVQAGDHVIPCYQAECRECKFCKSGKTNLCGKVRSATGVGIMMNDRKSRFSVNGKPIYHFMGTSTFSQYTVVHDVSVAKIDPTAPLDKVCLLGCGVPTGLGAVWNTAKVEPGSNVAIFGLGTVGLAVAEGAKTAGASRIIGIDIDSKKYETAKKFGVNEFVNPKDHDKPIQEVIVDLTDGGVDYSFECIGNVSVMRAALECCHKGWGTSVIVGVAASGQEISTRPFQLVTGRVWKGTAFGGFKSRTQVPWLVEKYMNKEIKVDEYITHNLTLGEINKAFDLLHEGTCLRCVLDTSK

B1: CaM4-His (natural protein)
chain: not shown
notes: Arabidopsis thaliana calmodulin 4 (AtCaM4, At1g66410); AtCaM1 and AtCaM4 encode the same protein; also called CaM-His; AtCaM4; source: E. coli BL21, purified; not shown: His6, C-terminal, kept
For B1, the binding result is “binds”.
